# Data taken from the supplement of paper PMC9732359.
# ± gives the uncertainty stated by the source.
# Assay: protein stability index of a GFP-peptide fusion (yeast GPS) (PSI 1-4); higher = more stable; sorted into four equal gates, so the index is relative within each strain
# In short: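 Tiled yeast protein peptides of 17 residues were each joined downstream of GFP, on plasmids that also express Cherry. The pooled library was maintained in yeast, and mid-log cultures in leucine-free medium were sorted into four equal gates on the GFP/Cherry ratio. Plasmids from every gate were amplified by PCR and sequenced on Illumina, with barcodes linking reads to strains. The protein stability index of a peptide is its gate-number-weighted read frequency summed over the gates.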
sequence,measurement,setting,value
FYQGKTGVVYNVTKSSV [RPL21A],protein stability index,doa10∆,2.69 ± 0.11
same,protein stability index,pdr5∆,2.58 ± 0.079
same,protein stability index,san1∆,2.42 ± 0.086
same,protein stability index,ubr1∆,2.65 ± 0.071
FYSTNSQYFKFKNDFNS [RPN9],protein stability index,doa10∆,2.1 ± 0.067
same,protein stability index,pdr5∆,2.11 ± 0.054
same,protein stability index,san1∆,2.1 ± 0.094
same,protein stability index,ubr1∆,2.5 ± 0.053
GAKPAGSTGGLGASFGQ [YGL172W/NUP49],protein stability index,doa10∆,3.38 ± 0.14
same,protein stability index,pdr5∆,3.41 ± 0.24
same,protein stability index,san1∆,3.22 ± 0.11
same,protein stability index,ubr1∆,3.54 ± 0.071
GASINSMKANTSTNPNG [ARP7],protein stability index,doa10∆,2.72 ± 0.089
same,protein stability index,pdr5∆,3.19 ± 0.089
same,protein stability index,san1∆,2.74 ± 0.067
same,protein stability index,ubr1∆,2.93 ± 0.058
GASVISLTKDKSIRKDT [SIR4],protein stability index,doa10∆,3 ± 0.065
same,protein stability index,pdr5∆,3.23 ± 0.055
same,protein stability index,san1∆,3.06 ± 0.076
same,protein stability index,ubr1∆,3.13 ± 0.072
GCDENDSTVNKSITLKG [YDL088C/ASM4],protein stability index,doa10∆,3.1 ± 0.091
same,protein stability index,pdr5∆,3.27 ± 0.068
same,protein stability index,san1∆,3.32 ± 0.06
same,protein stability index,ubr1∆,3.11 ± 0.066
GCEANIHSLVKQRLDLA [YIL149C/MLP2],protein stability index,doa10∆,3.06 ± 0.12
same,protein stability index,pdr5∆,3.19 ± 0.11
same,protein stability index,san1∆,3.05 ± 0.062
same,protein stability index,ubr1∆,3.19 ± 0.076
GDNEYITLRTSGELLQG [MCD1],protein stability index,doa10∆,3.14 ± 0.13
same,protein stability index,pdr5∆,3.11 ± 0.16
same,protein stability index,san1∆,3.16 ± 0.097
same,protein stability index,ubr1∆,3.36 ± 0.096
GDTVQFAEYIQANIQLY [PRE1],protein stability index,doa10∆,2.11 ± 0.065
same,protein stability index,pdr5∆,2.31 ± 0.063
same,protein stability index,san1∆,2.2 ± 0.064
same,protein stability index,ubr1∆,2.04 ± 0.053
GDYNNTVYSSEQYIQEL [SMC3],protein stability index,doa10∆,2.9 ± 0.11
same,protein stability index,pdr5∆,3.2 ± 0.11
same,protein stability index,san1∆,3.22 ± 0.074
same,protein stability index,ubr1∆,3.14 ± 0.042
GDYVAYQLNGVAPFMIK [YMR129W/POM152],protein stability index,doa10∆,1.53 ± 0.075
same,protein stability index,pdr5∆,1.49 ± 0.08
same,protein stability index,san1∆,1.66 ± 0.17
same,protein stability index,ubr1∆,1.84 ± 0.059
GEDFMEVDYEDKDNPVD [SRB4],protein stability index,doa10∆,3.56 ± 0.12
same,protein stability index,pdr5∆,2.96 ± 0.24
same,protein stability index,san1∆,3.46 ± 0.15
same,protein stability index,ubr1∆,3.32 ± 0.17
GEENRVRFIGDSVAAIG [QCR2],protein stability index,doa10∆,3.3 ± 0.15
same,protein stability index,pdr5∆,2.76 ± 0.18
same,protein stability index,ubr1∆,3 ± 0.24
GEINKICMESLFLEPSW [PCI8],protein stability index,doa10∆,1.84 ± 0.12
same,protein stability index,pdr5∆,1.89 ± 0.083
same,protein stability index,san1∆,2.03 ± 0.12
same,protein stability index,ubr1∆,1.99 ± 0.063
GEKKVGSNGELFGGRHY [SWP82],protein stability index,doa10∆,3.13 ± 0.2
same,protein stability index,pdr5∆,3.26 ± 0.13
same,protein stability index,san1∆,3.73 ± 0.12
GELRDYIEDFLLVIGGN [YJR042W/NUP85],protein stability index,doa10∆,2.23 ± 0.075
same,protein stability index,pdr5∆,2.38 ± 0.065
same,protein stability index,san1∆,2.65 ± 0.08
same,protein stability index,ubr1∆,1.74 ± 0.037
GEMERDCMIAHGAASFL [RPB2],protein stability index,doa10∆,3.04 ± 0.13
same,protein stability index,pdr5∆,3.08 ± 0.085
same,protein stability index,san1∆,3.04 ± 0.073
same,protein stability index,ubr1∆,2.76 ± 0.089
GENVFLKRISDGLSFGK [SIR3],protein stability index,doa10∆,3.26 ± 0.18
same,protein stability index,pdr5∆,3.39 ± 0.17
same,protein stability index,san1∆,3.42 ± 0.075
same,protein stability index,ubr1∆,3.54 ± 0.09
GEVLGITRFGLSKMRDS [RPO31],protein stability index,doa10∆,3.56 ± 0.12
same,protein stability index,pdr5∆,3.26 ± 0.11
same,protein stability index,san1∆,3.19 ± 0.075
same,protein stability index,ubr1∆,3.46 ± 0.1
GFIENCNGSALVEARSL [MTR3],protein stability index,doa10∆,2.66 ± 0.1
same,protein stability index,pdr5∆,2.83 ± 0.085
same,protein stability index,san1∆,2.23 ± 0.12
same,protein stability index,ubr1∆,2.15 ± 0.12
GFIFTSMILEAISTDKI [RRI2],protein stability index,doa10∆,1.35 ± 0.082
same,protein stability index,pdr5∆,1.27 ± 0.072
same,protein stability index,san1∆,1.26 ± 0.13
same,protein stability index,ubr1∆,1.51 ± 0.083
GGCDYIFSLLTGYPDEP [CYT1],protein stability index,doa10∆,3.42 ± 0.14
same,protein stability index,pdr5∆,3.39 ± 0.15
same,protein stability index,san1∆,2.77 ± 0.081
same,protein stability index,ubr1∆,3.08 ± 0.081
GGFEDVEEYTWSSLLNE [RPB2],protein stability index,pdr5∆,3.19 ± 0.17
same,protein stability index,san1∆,3.12 ± 0.085
GGFEYFLQPLLLVGLIK [NUT1],protein stability index,doa10∆,1.46 ± 0.056
same,protein stability index,pdr5∆,1.52 ± 0.063
same,protein stability index,san1∆,1.37 ± 0.11
same,protein stability index,ubr1∆,1.87 ± 0.12
GGLGLNLQTADTVIIFD [SNF2],protein stability index,doa10∆,3.18 ± 0.12
same,protein stability index,pdr5∆,3.22 ± 0.1
same,protein stability index,san1∆,3.34 ± 0.13
same,protein stability index,ubr1∆,3.38 ± 0.07
GGNGPEDFQQHEQIRRK [RPO26],protein stability index,doa10∆,3.3 ± 0.1
same,protein stability index,pdr5∆,3.39 ± 0.072
same,protein stability index,san1∆,3.09 ± 0.089
same,protein stability index,ubr1∆,3.44 ± 0.083
GGVGSMGAINNNIPSLT [SNF6],protein stability index,doa10∆,3.26 ± 0.11
same,protein stability index,pdr5∆,3.34 ± 0.09
same,protein stability index,san1∆,3.39 ± 0.072
same,protein stability index,ubr1∆,3.32 ± 0.1
GHTLINNYKDLLAVAIA [RPP0],protein stability index,doa10∆,1.19 ± 0.17
same,protein stability index,pdr5∆,1.61 ± 0.24
same,protein stability index,san1∆,1.31 ± 0.17
same,protein stability index,ubr1∆,1.18 ± 0.16
GIFIKILNDSLIYHLKD [IRR1],protein stability index,doa10∆,1.54 ± 0.045
same,protein stability index,pdr5∆,1.31 ± 0.048
same,protein stability index,san1∆,1.69 ± 0.068
same,protein stability index,ubr1∆,1.75 ± 0.033
GIGGDHAKFSPVSTASY [RPC40],protein stability index,doa10∆,2.59 ± 0.079
same,protein stability index,pdr5∆,2.9 ± 0.12
same,protein stability index,san1∆,2.28 ± 0.098
same,protein stability index,ubr1∆,2.9 ± 0.062
GIIVAVDSRATAGNWVA [PRE2],protein stability index,doa10∆,1.14 ± 0.064
same,protein stability index,pdr5∆,1.46 ± 0.079
same,protein stability index,san1∆,1.24 ± 0.13
same,protein stability index,ubr1∆,1.54 ± 0.082
GIKVSLLGIFDDIFIPQ [RPC25],protein stability index,doa10∆,1.78 ± 0.077
same,protein stability index,pdr5∆,1.73 ± 0.092
same,protein stability index,san1∆,2 ± 0.18
same,protein stability index,ubr1∆,1.77 ± 0.081
GILGNKAQAKMDKRAKN [RPL8A],protein stability index,doa10∆,3.59 ± 0.12
same,protein stability index,pdr5∆,3.51 ± 0.14
same,protein stability index,san1∆,3.41 ± 0.057
same,protein stability index,ubr1∆,3.63 ± 0.076
GILLLDSLIQLANRSKE [YJL039C/NUP192],protein stability index,doa10∆,1.86 ± 0.064
same,protein stability index,pdr5∆,1.74 ± 0.059
same,protein stability index,san1∆,1.64 ± 0.099
same,protein stability index,ubr1∆,1.97 ± 0.051
GINKNEEYRKQLDKKNE [SMC1],protein stability index,doa10∆,3.22 ± 0.12
same,protein stability index,pdr5∆,2.62 ± 0.069
same,protein stability index,san1∆,2.3 ± 0.082
same,protein stability index,ubr1∆,2.58 ± 0.045
GIRVQDSVILASSKAVT [PRE1],protein stability index,doa10∆,2.54 ± 0.065
same,protein stability index,pdr5∆,2.73 ± 0.076
same,protein stability index,san1∆,2.46 ± 0.068
same,protein stability index,ubr1∆,2.38 ± 0.05
GITAVHVKIRATGGTRT [RPS14B],protein stability index,doa10∆,1.47 ± 0.052
same,protein stability index,pdr5∆,1.61 ± 0.041
same,protein stability index,san1∆,1.57 ± 0.11
same,protein stability index,ubr1∆,1.24 ± 0.047
GIVETNRPDNKNAQYHL [RPN7],protein stability index,doa10∆,3.17 ± 0.11
same,protein stability index,pdr5∆,3.21 ± 0.13
same,protein stability index,san1∆,3.4 ± 0.069
same,protein stability index,ubr1∆,3.06 ± 0.054
GKALVHHYEECAERVKI [QCR6],protein stability index,doa10∆,3.47 ± 0.093
same,protein stability index,pdr5∆,3.28 ± 0.1
same,protein stability index,san1∆,3.25 ± 0.073
same,protein stability index,ubr1∆,3.39 ± 0.074
